Assay results from patent US20250109182A1 (KITE PHARMA, published 2025).
One block for each binder: values may come before it.

Legend:
[1] = molecular target: T1, recombinant human GPC3 (rhGPC3) fluorescently conjugated to DyLight 650 (human, UniProt P51654 25-559, limits assumed, fluorescently conjugated to DyLight 650); assay: flow cytometry; rhGPC3-DyLight 650 staining of CAR+ T cells
T1 construct: Soluble staining reagent for flow cytometry, diluted 1:200; also called Glypican-3
Source text: (§1) Similar to the previous trials, CD3⁺ cells were isolated from primary human peripheral blood mononuclear cells (PBMCs) and transduced with the GPC3 CAR constructs above in the presence of polybrene and at a multiplicity of infection of two, based on expression titer in Jurkat cells. At the end of manufacturing, cells were frozen down in Cryostor® CS5 and stored in liquid nitrogen until thawing. Upon thawing, cells were rested in T cell culture medium overnight with 100 UI/mL IL-2, washed, and stained with Live/Dead™ Violet diluted at 1:1000, recombinant human GPC3 (rhGPC3) fluorescently conjugated to DyLight™ 650 diluted at 1:200, and anti-CD3 BV650 at 1:100 in PBS for 30 min at 4° C. The DNA of a pellet of 1×10⁵ cells was extracted in QuickExtract™ Buffer, frozen, and used to measure average vector copy number (VCN) by droplet digital PCR quantifying frequency of integrated virus per cell. Percentage CAR+ cells are defined as percentage of cells staining with rhGPC3 amongst Live/Dead™ negative, CD3⁺ positive cells, and Mean Fluorescence Intensity (MFI) of CAR⁺, and Vector copy number (VCN) are given in the example. […] Construct CAR 1 also has higher MFI of CAR⁺ cells, which could indicate more efficient expression or higher affinity of the CAR to rhGPC3.

[2] = molecular target: T1, recombinant human GPC3 (rhGPC3) …; assay: flow cytometry; transduced T cells stained with rhGPC3-DyLight 650 at 1:200; gated live CD3+
Source text: as §1

[3] = molecular target: TGF-β Receptor Type II (TGF-βRII), endogenous wild-type, in primary human T cells (human, UniProt P37173 23-567); assay: cell-based or functional assay
Sequence of TGF-β Receptor Type II (TGF-βRII), endogenous wild-type, in primary human T cells (P37173 23-567): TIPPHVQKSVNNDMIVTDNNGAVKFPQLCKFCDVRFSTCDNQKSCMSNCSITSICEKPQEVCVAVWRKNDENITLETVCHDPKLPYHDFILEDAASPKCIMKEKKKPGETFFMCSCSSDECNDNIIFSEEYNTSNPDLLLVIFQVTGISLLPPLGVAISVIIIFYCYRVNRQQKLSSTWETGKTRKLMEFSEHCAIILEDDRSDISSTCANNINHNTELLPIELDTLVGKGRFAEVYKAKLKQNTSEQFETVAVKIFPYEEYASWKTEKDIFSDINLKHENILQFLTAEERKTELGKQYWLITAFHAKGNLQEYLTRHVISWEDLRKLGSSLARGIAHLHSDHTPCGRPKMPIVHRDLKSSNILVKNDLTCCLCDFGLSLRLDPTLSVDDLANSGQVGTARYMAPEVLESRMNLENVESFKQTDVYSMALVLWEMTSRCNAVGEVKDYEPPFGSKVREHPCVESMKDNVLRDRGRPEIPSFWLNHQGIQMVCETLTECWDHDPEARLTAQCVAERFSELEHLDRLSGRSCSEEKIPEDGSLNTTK

T1 sequence (P51654 25-559 limits assumed): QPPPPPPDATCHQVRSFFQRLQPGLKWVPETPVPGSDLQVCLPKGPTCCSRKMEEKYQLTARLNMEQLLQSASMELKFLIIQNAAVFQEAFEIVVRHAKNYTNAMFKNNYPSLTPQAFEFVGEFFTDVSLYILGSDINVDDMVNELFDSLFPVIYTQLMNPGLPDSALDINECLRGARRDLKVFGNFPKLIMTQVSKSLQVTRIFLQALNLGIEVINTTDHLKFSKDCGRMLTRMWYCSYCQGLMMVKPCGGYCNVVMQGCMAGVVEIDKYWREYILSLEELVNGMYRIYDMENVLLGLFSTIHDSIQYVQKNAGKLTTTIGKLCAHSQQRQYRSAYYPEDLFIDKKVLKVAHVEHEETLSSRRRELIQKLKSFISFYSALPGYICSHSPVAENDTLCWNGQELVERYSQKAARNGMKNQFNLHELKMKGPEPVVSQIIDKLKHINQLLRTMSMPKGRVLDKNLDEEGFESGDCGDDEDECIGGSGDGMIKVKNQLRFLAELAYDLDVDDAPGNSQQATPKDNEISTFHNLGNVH

MFI CAR + [1]: 21100 MFI
% CAR + (percentage of cells staining with rhGPC3) [2]: 93.4%
B1: Construct CAR 1 (GPC3 scFv + 4-1BB intracellular domain + CD3ζ intracellular domain), GPC3-CAR encoded by the codon-optimized sequence of SEQ ID NO: 51 (other)
chain: DIVMTQSPDSLAVSLGERATINCKSSQSLLYSSNQKNYLAWYQQKPGQPPKLLIYWASSRESGVPDRFSGSGSGTDFTLTISSLQAEDVAVYYCQQYYNYPLTFGQGTKLEIKGSTSGSGKPGSGEGSTKGEVQLVESGGGLVQPGGSLRLSCAASGFTFNKNAMNWVRQAPGKGLEWVGRIRNKTNNYATYYADSVKARFTISRDDSKNSLYLQMNSLKTEDTAVYYCVAGNSFAYWGQGTLVTVSSGSTTTPAPRPPTPAPTIASQPLSLRPEACRPAAGGAVHTRGLDFACDIYIWAPLAGTCGVLLLSLVITLYCKRGRKKLLYIFKQPFMRPVQTTQEEDGCSCRFPEEEEGGCELRVKFSRSADAPAYQQGQNQLYNELNLGRREEYDVLDKRRGRDPEMGGKPRRKNPQEGLYNELQKDKMAEAYSEIGMKGERRRGKGHDGLYQGLSTATKDTYDALHMQALPPR
notes: Chimeric antigen receptor expressed on transduced primary human CD3+ T cells; also called GPC3-CAR construct

fold less induction of pSMAD2 and pSMAD3 versus PSMA CAR only, TGF-β1 stimulated T cells [3]: ~2 fold
fold less induction of pSMAD2 versus CD19 CAR only, TGF-β1 stimulated T cells [3]: ~4 fold
fold less induction of pSMAD2 versus GPC3 CAR only, 4-1BB co-stimulation, TGF-β1 stimulated T cells [3]: ~3 fold
fold less induction of pSMAD3 versus CD19 CAR only, TGF-β1 stimulated T cells [3]: ~2 fold
fold less induction of pSMAD3 versus GPC3 CAR only, 4-1BB co-stimulation, TGF-β1 stimulated T cells [3]: ~1.3 fold
B2: engineered, dominant-negative TGF-β receptor Type 1 (DN TGF-βRI) construct of SEQ ID NO: 10 (receptor)
chain: LQCFCHLCTKDNFTCVTDGLCFVSVTETTDKVIHNSMCIAEIDLIPRDRPFVCAPSSKTGSVTTTYCCNQDHCNKIELPTTVKSSPGLGPVELAAVIAGPVCFVCISLMLMVYIRVNRQ
